In the DeepSol protein solubility set:

Assay: soluble on expression in E. coli; label from the status in PepcDB or PDB records

Row | Sequence | soluble on expression in E. coli
1 | MSLRSEVKAEDTWRLEDIFPSDEAWNKEFQAVKELIPNLSKYKGKLADSADHLYEALTYQDKVMERLGRLYTYAHMRSDQDTGNSFYQGLNDKAGNLYTQAESATAYLVPEILSIEEDKLQQFILEKEELKLYSHAIEEITKERPHVLSEKEEALLAEASEVLGSSSNTFSVLNNADITFPSIKDEDGNEKQITHGNFINFLESENREVRKNAFDAVYKTYGQYKNTMATTLSGTVKKDNFYARVKKYKSAREAALSNNSIPEEVYDNLVKTINKHLPLLHRYIALRKKVLELDEVHIYDLYTPLVKDAGMKVTYEEAKDYMLKGLAPLGEEYASILKEGLENRWVDVYENKGKRNGAYSSGAYGTNPYILMNWHNNVNNLFTLVHEFGHSVHSYYTRKHQPYPYGNYSIFVAEVASTTNEALLGEYLLNNLEDEKQRLYILNHMLEGFRGTVFRQTMFAEFEHLIHTKAQEGEPLTPELLTNVYYDLNKKYFGDGMVIDKEIGLEWSRIPHFYYNYYVYQYATGYSAAQALSSQILKEGKPAVDRYIDFLKAGSSQYPIDVLKKAGVDMTSPEPIEAACKMFEEKLDEMEELLMKVKEGHHHHHH | soluble
2 | MSLRSMFMYKSHIPEDCEEEAQITAAKLILLVDDDPVFRRMTKGYLQKYGYQVIEAENGLDGLRKLRDHEPDLILCDLSMPVLNGIEFVEEVSSSYPSLPLVVVSATEEMADVAKALRFGIKDFLPKPITNHSHLASAIEKVLANDDHQRDFASCWYGADRQGSIPEEQELHWHLQYLKDNPNAAKELLEALLPEKDSQLGSWKCSYRLLQSAELMPLVFDYAWLMNGQFVFYVVDAASHRECGAASTLLVRALFHDYLRNLRNFSVELKDLAEIIERGIHCSECIGKVSALFGVADLADGTLSLLPAGLDCQWSNGYVHNRITSGVQLGDNSLRNFITKDLPIRAACQISLSKPSAYSFTLDLYQGEGHHHHHH | soluble
3 | MSLRTGKTNVIALVLSVDEELMGFTSQMVFGITEVLSTTQYHLVVTPHIHAKDSMVPIRYILETGSADGVIISKIEPNDPRVRFMTERNMPFVTHGRSDMGIEHAFHDFDNEAYAYEAVERLAQCGRKRIAVIVPPSRFSFHDHARKGFNRGIRDFGLTEFPIDAVTIETPLEKIRDFGQRLMQSSDRPDGIVSISGSSTIALVAGFEAAGVKIGEDVDIVSKQSAEFLNWIKPQIHTVNEDIKLAGRELAKALLARINGEAAETLQSISGPVWSSMAPKEGHHHHHH | soluble
4 | MSLRTTDDLPNALPPALESMTLLVAAVIVHDQATNRVVLLQRSENAKFAQGMWDLPVGKSEPGEPITETAVRELHEETGLTVKPEALMVAHIIHGSWGVEAPNGFLTVVFATHEWTGEPENREPRKHSQVRWVDADAIPEECVDTTASALHHYLSGGAQVSLDGWLPKEGHHHHHH | soluble
5 | MSLRTVLITGTTSGIGYALSELFAKKECHVILVSRNAMKLSAQKQKLENGNNRIDTITCDLEQTNAAEIIYKSIKQNGWQVDILVNNAGFNEAGLFSETDATCEQGMINLHINFVTDMMKLFIPEMIQNSHGHILNVGSTGSYIACPKDAVYAASKAYILHLSKAVHAELKGTGVTVTTLCPGSTRTEFAHKAKIEHTLLFKIFVMSPHKVALSGLRAMEKGKSVIIPGLYNKILVLCSRLLPYSFIGWMTKKMLEGHHHHHH | not soluble
6 | MSLRYDRAGDQHYDVASALIKSMRGSDVDAALHYLARMVEAGEDPRFIARRIVIAAAEDVGMADPSALQTAVAAMHAVAQIGMPEARIVLAQAVVHNATAPKSNAAYAGINAAIADVRAGLGGSVPAHLRDAHYAGAGKLGHGKGYVYTHDVPAGVAEQQYAPDELVGKDYYVPTDRGFENQLRERLARLRRVLRGREGHHHHHH | soluble
7 | MSLSALLNYKLEGSGETVVLIHGLFGSLDNLGLLARDLKNDHQVLSLDLRNHGLSFHSDEHNYALMAQDVNQLLEHLNLTSVVVIGHSMGGKVAMKLADIAAEKVRQLVVLDMSPVAYSQRRHDNVFAGLEAVLVQKPTSRSEVMAILAQHIEQEGVRQFLGKSLMSEQNVMTWRFNVAALKAHYAEILGWDIIAKCRIPTLFIKGADSDYLTTQHQPMVQAQFSQAKAHVIANTGHWLHAEKPAEVIRAIRKFIDVPVEGHHHHHH | soluble
8 | MSLSAPKQWQVGIVGYGEVGKILAEDLRAQGVKVAAYDVKLADDRGGPLREHASRHDVALTTSHAELAARSDFIISAVTASQTVAVAEACAGAINQGTWFLDFNSASPGAKQRAASLIDGAQGRYVEGAVMTSVPPYRIKVPLLLGGAYAAELAPLINTLGFAAKPASDQLGVASATKMCRSIMIKGLEAMVIESFTTARAYGVEDAVIASLQETFPQIDWEKQGAYFFQRVIAHGRRRAEEVREVAETVREAGLTPWSAQGTAERQAWVADLADEGLFGTRGASGFARSPDWRTEADRILAKVKDETKTEGHHHHHH | not soluble
9 | MSLSAPLPLCVIGAGCVGMRHVEVARRSPQIRLTAVVEPVETRRRALAESGLVAVATLEEVPRETRAAIVATPTPDHLATGLAALSRGWAVLVEKPTAGTMDDARVLLGAADRAGLPLYVGHHRRCHPFSRAAREALGGIGDLVGLQGLWSLRKHDSYYAEDWRRQAGAGPLMTNLSHEIDLLRFLVGDMVEVSALTSSARRGLVVPDTAALAFRFADGALGSFLISDAGASPWSFEAACAENPAIAVSGQDYIRITGTAGALEFPSLTRWGRSAPGEIEWSKPLARAAGAGFARVDPLLEQINRFAAVLEGAQDDVLCTGTDGNAALEMTLAAALSGKLGRPVRAHEVPGDYSGEGHHHHHH | soluble
10 | MSLSDILILTHAEFCPPGHLATVLAQRGLDFRVVRADLGQLAGLDAERPRAVAIMGGPMSVNDDLPWLGDELALLRRFIERRIPLLGHCLGGQLLARVLGATVRQQPYTEMGWQPMQRESRDSPWLAHLPERFAIFQWHGDAFDLPQGAERLLSSAWCENQAFSWGGHVLGLQGHPEMTEELVRRWIDGWPQLLDSSQPSQQSREAMLADLPLKVAALNRVAEGFYRHWLSLLREGHHHHHH | not soluble
11 | MSLSDINNMAYGISDMLGSIDNLAMFDLVVPHFRGKENECLFGMFGRATTTLQGGKIAKHVQEIFAETLTAHLHKLEPGEEPSEALRRTFLWGDRKAFEFFSGKLQLEKERKPSWTSFASFDSMFRGWTPGVNSVLRTGASGAVVYLVDKVLHVGSIGDTLVVLSRKGDAELLSKRHDPTDREESARIRKAEAWVSTKGFVNDDKDLDISRAFGYWHECPAVNAAPEIRTRRLQESDEFVIIGNHALWQFCSYQTAVDIARTERDDPMIAAQKLRDFAISYGAEGNVMVMVVNVSDLFLGKEGHHHHHH | not soluble
12 | MSLSEGTFEVGKNTFLLNGEPFVVKAAEIHYPRIPKEYWEHRIKMCKALGMNTICLYVFWNFHEPEEGRYDFAGQKDIAAFCRLAQENGMYVIVRPGPYVCAEWEMGGLPWWLLKKKDIKLREQDPYYMERVKLFLNEVGKQLADLQISKGGNIIMVQVENEYGAFGIDKPYISEIRDMVKQAGFTGVPLFQCDWNSNFENNALDDLLWTINFGTGANIDEQFKRLKELRPDTPLMCSEFWSGWFDHWGAKHETRSAEELVKGMKEMLDRNISFSLYMTHGGTSFGHWGGANFPNFSPTCTSYDYDAPINESGKVTPKYLEVRNLLGNYLPEGETLPEIPDSIPTIAIPTIKMTEMAVLFDNLPHPKESEDIRTMEAFDQGWGSILYRTSLSASDKEQTLLITEAHDWAQVFLNGKKLATLSRLKGEGVVKLPPLKEGDRLDILVEAMGRMNFGKGIYDWKGITEKVELQSDKGVELVKDWQVYTIPVDYSFARDKQYKQQENAENQPAYYRSTFNLNELGDTFLNMMNWSKGMVWVNGHAIGRYWEIGPQQTLYVPGCWLKKGENEIIILDMAGPSKAETEGLRQPILDVQRGNGAYAHRKMGEGHHHHHH | soluble
13 | MSLSENIAAYVGLDVHKETLAVAIAAPERLGEVRYYGTINNEAQAVRRLFQKLQGLYGNILSCYEAGPCGFGLYHQLTAMNIKCQVIAPSRIPKSPTDRIKNDHRDAISLARLLRAGELTPVWIPDLTHEAMRDLIRARAAAKRDSRVARQRILSMLLRTDKHYAGKHWTGKHRTWLANQSFSQPSQQIAFQHYCQSLEQIEDRILQLDQEISRLLPEWSLCNLVCQLQALKGVGQLIAITLVAELGDFSRFSNPKQLMAFLGLVPGEYSSGNSIRPRGITKVGNSELRRLLYEAAWSYRTPAKVGAWLIYYRPDSVTQYSKDIAWKAQQRLCSRYRSLTAKGKKSQVAITAVARELTGFMWDIALAEGHHHHHH | not soluble
14 | MSLSEPSVQADTRLNALIVQDIPERMPIYRALIEQLDVPSTLIEIEAMIVDVNTDLVNELGVTWGAQIGTTSLGYGDLGLRPGNGLPVDGAAAELAPGTLGISVSTRLAARLRALESDGQANILSQPSILTADNLGAMIDLSDTFYIRTLGERVATVTPVTVGTSLRVTPRYIAAKGGRQVELAIDIEDGRVLQEYPIDGLPRVRKSSISTLAVVGDEQTLLIGGYNNRRDEEQVEKVPLLGDIPGLGFLFSSKSRAVQRRERLFLIRPRVVAIEGKPVFSPVAGTSQVFMSTEGHHHHHH | soluble
15 | MSLSEVQPIPVTVSQYSYYSDKNYPKRRTMEDAHVICDPLIEVEGRVYSLYAIFDGHRGRTAAQHCAKIVKDKIKEVLQRKDEGFEEMMQDAMYEMDMSLKENGIEYSGCCALMCIIEIKDKKRIIHMANCGDSCGIIIGTNEVIPMSEEHKATNENEAKRIKESGGMIINGRVSGDVAVTRGLGDHHLKQWVVSEPFVKEVEWQEDYKYIVLGCDGLWDTLNGNQIKEVLESNNCEFTSSAKSLTQLAIGKGSTDNITTIVLKLEGHHHHHH | soluble
16 | MSLSFKDAVRKRPGMYFGDIDHNAVNHVIYELVANVVDLFLAGRATTLKVDVSECEIIVIDDGPGFPFPVEDSAHNLVERYLTHHHDKPTADDHAPHIHVLGGGLGLAAVNAVSEKLTIESSNGAWRWRQVFGKGDVLAPLESFRYDGPSGSSIKFTLDPSVFHNRLPDFFQLRKAMFELAHLYSGLIVEFDGERYVSKQGLMELAYLMWSGEGHHHHHH | not soluble
17 | MSLSGEPYNFEYTFSKSHDIGVSLTIGKRNYMEDEVLIAGNIKEGIDLVGIFDGHNGSDAAKLAAKLFKEEIKHLEEEFDWITLFEKVHSTIIKSTESGTTATLALIYSNKITLVHCGDSTAFALKKRKLKKLTHDQNTSSLEEVSSIKKNGGVVEFNGGILRVNGQISVTRSLGDKKFHPPLTCIPEVIELESDDITSLVLTSDGISSVLQLDEIEAVMNSEMNVEEKSSTLRNQSFIREGKDNMSVIVVSFNEGHHHHHH | soluble
